Measured values reported in the supplement of paper PMC11865577.

These sequences were tested on TO-3-N3-2 (biotin conjugate) (assay: pull-down binding Z-score (relative to library population); higher = stronger binding). Details: RNA library: Library-2.
How it was run: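 Cy5- or Cy3-end-labelled RNA library (1 μg) was heat-folded in phosphate/NaCl/KCl buffer and incubated 60 min at 25 °C with streptavidin beads carrying 100 pmol biotin-conjugated small molecule. After three washes, bound RNA was eluted in hot SDS and hybridised 20 h at 55.5 °C to a DNA barcode microarray. Binding was scored by subtracting a beads-only control, averaging barcoded replicate probes after dropping highest and lowest, and converting to a Z-score against library mean and standard deviation.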

Going from AGUGUUUGCCUAGGUUCUUUAAUCUACUCAACCGCU to AGUUCAAGAAAUUCAACU, the “pull-down binding Z-score” value falls from -0.219 to -0.224.

Compared with “AGUUCAAGAACUUUACUCUCCAAUUUUUCUUAUUGUUGCGGCAAUAGUGUUUAUAACACUUUGCUUCACACUCAAAAGAAAGACAGAAUGAUUGAACU”, “AGUUGCUUACUCUAAUAACU [DMSMaPseq_invitro_SARS-CoV-2_Motif_421]” is higher in “pull-down binding Z-score” value: -0.46 for the first, -0.314 for the second.

First: AGUUGUGAUCAACU
Second: AGUUUACGCCCUGACACACGUUAUGUGCUCAUGGAUGGCU
The “pull-down binding Z-score” value of the first is lower: -0.728 for the first, -0.516 for the second.

Going from AGUUUUUGUACACAAUUAAACCGUGCUUUAACU to AUAAAAUAGAAGAAUUAUUCUAUUCUUAU, the “pull-down binding Z-score” value falls from -0.252 to -0.288.

Going from “AUAAACCACCCAUUAGUUUUCCAUUGUGUGCUAAUGGACAAGUUUUUGGUUUAU” to “AUAAAGAAAUGUAUCUAAAGUUGCGUAGUGAUGUGCUAUUACCUCUUACGCAAUAUAAUAGAUACUUAGCUCUUUAU”, the “pull-down binding Z-score” value rises from -0.594 to -0.197.

Compared with “AUAACAAUACUAGAUGGAAUUUCACAGUAUUCACUGAGACUCAUUGAUGCUAUGAUGUUCACAUCUGAUUUGGCUACUAACAAUCUAGUUGU”, “AUAAGAAAGACAAUUCUUAU [DMSMaPseq_invitro_SARS-CoV-2_Motif_114]” is lower in “pull-down binding Z-score” value: 0.176 for the first, -0.3 for the second.

Compared with “AUAAUAAGAGGCUGGAUUUUUGGUACUACUUUAGAUUCGAAGACCCAGUCCCUACUUAUUGU”, “AUACCACUUAUGUACAAAGGACUUCCUUGGAAUGUAGUGCGUAU” is lower in “pull-down binding Z-score” value: -0.168 for the first, -0.319 for the second.

First: AUACCUGCACGUGCUCGUGUAGAGUGU
Second: AUAGAUUAUGUACCACUAAAGUCUGCUACGUGUAUAACACGUUGCAAUUUAGGUGGUGCUGUCUGU
The “pull-down binding Z-score” value of the first is higher: -0.0175 for the first, -0.399 for the second.

Going from AUAUAACUUCUAAAGAAACUUUGUAU to “AUAUGUUUACACCACUAAUUCAACCUAUUGGUGCUUUGGACAUAU [DMSMaPseq_invitro_SARS-CoV-2_Motif_171]”, the “pull-down binding Z-score” value rises from -0.347 to -0.311.

First: AUCAAGACUAUUCAACCAAGGGUUGAAAAGAAAAAGCUUGAU
Second: AUCACUAGGUUUCAAACUUUACUUGCUUUACAUAGAAGUUAUUUGACUCCUGGUGAU
The “pull-down binding Z-score” value of the first is higher: -0.241 for the first, -0.375 for the second.

First: AUCCGAUUUACAGGAU
Second: AUCUACAAUGAU [DMSMaPseq_invitro_SARS-CoV-2_Motif_243]
The “pull-down binding Z-score” value of the first is higher: -0.525 for the first, -0.742 for the second.

Going from AUCUGAAUUCUUCUAGAGUUCCUGAU to “AUCUUAGGGAAUUUGUGUUUAAGAAUAUUGAUGGUUAUUUUAAAAUAUAUUCUAAGCACACGCCUAUUAAUUUAGUGCGUGAUCUCCCUCAGGGU”, the “pull-down binding Z-score” value rises from -0.168 to -0.113.

First: AUCUUCUGCAGGCUGCUUACGGUUUCGUCCGUGUUGCAGCCGAUCAUCAGCACAUCUAGGUUUUGUCCGGGUGUGACCGAAAGGUAAGAU [DMSMaPseq_invitro_SARS-CoV-2_Multi_2_ComplexLevel_1]
Second: AUCUUUCUGUGCUUUUGCUGUAGAUGCUGCUAAAGCUUACAAAGAU
The “pull-down binding Z-score” value of the first is lower: -0.451 for the first, 0.0938 for the second.

Going from “AUGAACCACAAAUCAU [DMSMaPseq_invitro_SARS-CoV-2_Motif_444]” to “AUGAAUCUCUCAU [SHAPE_invivo_SARS-CoV-2_Motif_473]”, the “pull-down binding Z-score” value falls from -0.31 to -0.347.

Going from “AUGAGAAGUGCUCUGCCUAUACAGUUGAACUCGGUACAGAAGUAAAUGAGUUCGCCUGUGUUGUGGCAGAUGCUGUCAU [SHAPE_invitro_SARS-CoV-2_Motif_53]” to “AUGAGGUUUAGAAGAGCUUUUGGUGAAUACAGUCAUGUAGUUGCCUUUAAUACUUUACUAUUCCUUAU”, the “pull-down binding Z-score” value rises from -0.278 to 0.205.

First: AUGAGUACGAACUUAUGUACUCAU
Second: AUGAUGUUUCUUUUUUAGCACAU
The “pull-down binding Z-score” value of the first is lower: -0.43 for the first, -0.427 for the second.

Compared with “AUGCAUUCUGCAU [SHAPE_invivo_SARS-CoV-2_Motif_273]”, AUGCCAACUAUUUUCUUUGCUGGCAU is higher in “pull-down binding Z-score” value: -0.638 for the first, -0.637 for the second.

First: AUGCCUUUUUACCUUUUGCUAUGGGUAUUAUUGCUAUGUCUGCUUUUGCAAUGAUGUUUGUCAAACAUAAGCAUGCAU [DMSMaPseq_invitro_SARS-CoV-2_Multi_36_ComplexLevel_1]
Second: AUGCUGACGAUGGUCAUUUUGUCAGCAU [IAV_invivo_M1_M2_7_Motif_18+IAV_invivo_M1_M2_7_Motif_18]
The “pull-down binding Z-score” value of the first is higher: 0.472 for the first, 0.337 for the second.

Going from AUGCUGUUACAGCGU to “AUGCUUGGAACAGGAAGAGAAUCAGCAACUGUGUUGCUGAUUAUUCUGUCCUAUAUAAUUCCGCAU [DMSMaPseq_invitro_SARS-CoV-2_Motif_399]”, the “pull-down binding Z-score” value rises from -0.512 to -0.327.

Compared with “AUGGCCCCGAUUUCAGCUAU [SHAPE_invivo_SARS-CoV-2_Motif_151]”, “AUGGCUGAUCAAGCUAU [DMSMaPseq_invitro_SARS-CoV-2_Motif_216]” is lower in “pull-down binding Z-score” value: -0.281 for the first, -0.583 for the second.

First: AUGGUAAGUGCGAUACUUACCUG [U1snRNP5ss-24]
Second: AUGGUCUUUGUUCUUUUUUUUGUAUGAAAAUGCCUUUUUACCUUUUGCUAUGGGUAUUAUUGCUAU
The “pull-down binding Z-score” value of the first is lower: -0.139 for the first, 0.135 for the second.

Compared with “AUGGUGCUAACAAAGACGGCAUCAU [SHAPE_invivo_SARS-CoV-2_Motif_545]”, “AUGGUUAUCUUACUUCUUCUUCUAAAACACCUGAAGAACAUUUUAUUGAAACCAU” is higher in “pull-down binding Z-score” value: -0.105 for the first, 0.0544 for the second.

First: AUGUACAUCUUCUUUGCAUCAUUUUAUUAUGUAUGGAAAAGUUAUGUGCAU
Second: AUGUACUUGGAUUGGCUGCAAUCAUGCAAUUGUUUUUCAGCUAUUUUGCAGUACAU
The “pull-down binding Z-score” value of the first is lower: -0.603 for the first, -0.577 for the second.

First: AUGUCAUAUUGGAGUUGGACUGCAGGGCUUCCUUUACACAAUAAAUAUUGUAUGAAGUGCUGAUGUAACCUUUACUGCAGCAUGACAU [hsa-mir-3976]
Second: AUGUUUGUCAAACAUAAGCAU [DMSMaPseq_invitro_SARS-CoV-2_Motif_200]
The “pull-down binding Z-score” value of the first is higher: -0.081 for the first, -0.54 for the second.

Going from “AUUACUGCAAAAUGGUAUGAAUGGACGUACCAUAUUGGGUAGU [DMSMaPseq_invitro_SARS-CoV-2_Motif_194]” to “AUUAGAGAAAACAACAGAGUUGUUAUUUCUAGU [DMSMaPseq_invitro_SARS-CoV-2_Motif_378]”, the “pull-down binding Z-score” value falls from 0.144 to -0.0987.

First: AUUAUGAGGACUUUUAAAGUUUCCAUUUGGAAUCUUGAUUACAUCAUAAACCUCAUAAU
Second: AUUAUGUGUACCUUCCUUACCCAGAUCCAUCAAGAAUCCUAGGGGCCGGCUGUUUUGUAGAUGAUAUCGUAAAAACAGAUGGUACACUUAUGAU [DMSMaPseq_invitro_SARS-CoV-2_Multi_47_ComplexLevel_1]
The “pull-down binding Z-score” value of the first is lower: -0.377 for the first, 0.0322 for the second.

Going from AUUCUAUUCUAUUCUAUUCU [r(AUUCU)4] to “AUUCUGAAGUUGUUCUUAAAAAGUUGAAGAAGUCUUUGAAU [DMSMaPseq_invitro_SARS-CoV-2_Motif_213]”, the “pull-down binding Z-score” value falls from -0.0109 to -0.324.

Going from “AUUGACAUUAAUGGCAAUCUUCAUCCAGAUUCUGCCACUCUUGUUAGU [DMSMaPseq_invitro_SARS-CoV-2_Motif_73]” to “AUUGGCGACCCUGCUCAAU [DMSMaPseq_invitro_SARS-CoV-2_Motif_311]”, the “pull-down binding Z-score” value falls from -0.197 to -0.309.

Going from AUUGGUGCAGGUAUAUGCGCUAGU to AUUGUUACAUAAACCUAUUGUUUGGCAUGUUAACAAU, the “pull-down binding Z-score” value rises from -0.674 to -0.197.

Compared with AUUGUUCAACUUAGUGAAAUUAGUAUGGACAAU, “AUUGUUGUCGCUUCCAAGAAAAGGACGAAGAUGACAAU [DMSMaPseq_invitro_SARS-CoV-2_Motif_245]” is lower in “pull-down binding Z-score” value: 0.243 for the first, -0.272 for the second.

First: AUUUGAACUCUACUAAUGUCACUAUUGCAACCUACUGUACUGGUUCUAUACCUUGUAGUGUUUGUCUUAGUGGUUUAGAU
Second: AUUUUUCUAAACUGAUAAAU [DMSMaPseq_invitro_SARS-CoV-2_Motif_131]
The “pull-down binding Z-score” value of the first is lower: -0.244 for the first, -0.194 for the second.

First: CAAAUGUGCCUUUCAACUCUCAUGAAGUGUGAUCAUUGUGGUGAAACUUCAUGGCAGACGGGCGAUUUUG
Second: CAACAAAAGUUG [SHAPE_invivo_SARS-CoV-2_Motif_413]
The “pull-down binding Z-score” value of the first is higher: -0.412 for the first, -0.787 for the second.

First: CAACAAUGUGUGAUAUCAGACAACUACUAUUUGUAGUUGAAGUUGUUG
Second: CAACCUAAAUAGAGGUAUG
The “pull-down binding Z-score” value of the first is higher: 0.0207 for the first, -0.292 for the second.

First: CAACGGUACUAUUACCGUUG
Second: CAACGUAAGUUG [DMSMaPseq_invitro_SARS-CoV-2_Motif_215]
The “pull-down binding Z-score” value of the first is higher: -0.426 for the first, -0.477 for the second.

For “CAACUCUCAUGAAGUGUGAUCAUUGUGGUGAAACUUCAUGGCAGACGGGCGAUUUUGUUAAAGCCACUUGCGAAUUUUG”, the “pull-down binding Z-score” value was -0.197.
